Measured values as given in patent publication US20150284450A1, “COMBINATION THERAPIES USING ANTI-PSEUDOMONAS PSL AND PCRV BINDING MOLECULES” (priority 2012, published 2015).

Tests used:
[1] = test system: P. aeruginosa serogroup 011 strain (9882-80.lux); assay: OPK assay with luminescent 9882-80.lux; format: cell-based, Pseudomonas aeruginosa; settings: FIG. 2B
Description: (§1) This example describes the evaluation of prioritized human IgG1 antibodies to promote OPK of P. aeruginosa. […] OPK assays were performed as described in (DiGiandomenico, A., et al., Infect Immun 72, 7012-7021 (2004)), with modifications. Briefly, assays were performed in 96-well plates using 0.025 ml of each OPK component; P. aeruginosa strains; diluted baby rabbit serum; differentiated HL-60 cells; and monoclonal antibody. In some OPK assays, luminescent P. aeruginosa strains, which were constructed as described (Choi, K. H., et al., Nat Methods 2, 443-448 (2005))., were used. Luminescent OPK assays were performed as described above but with determination of relative luciferase units (RLUs) using a Perkin Elmer ENVISION Multilabel plate reader (Perkin Elmer).
The ability of the WapR-004 and Cam-003 antibodies to mediate OPK activity against another clinically relevant O-antigen serotype strain, 9882-80.lux, was evaluated.

[2] = test system: P. aeruginosa 6077 (O11-cytotoxic); assay: Corneal infection (keratitis) model in mice, strain 6077; format: in vivo, Pseudomonas aeruginosa; settings: antibody 24 h prior to 6077 (2×10^6 CFU); FIG. 8A-D, F-G
Description: (§2) Antibodies or PBS were administered 24 hours before infection in each model. P. aeruginosa acute pneumonia, keratitis, and thermal injury infection models were performed as described (DiGiandomenico, A., et al., Proc Natl Acad Sci USA 104, 4624-4629 (2007)), with modifications. In the acute pneumonia model, BALB/c mice (The Jackson Laboratory) were infected with P. aeruginosa strains suspended in a 0.05 ml inoculum. In the thermal injury model, CF-1 mice (Charles River) received a 10% total body surface area burn with a metal brand heated to 92° C. for 10 seconds. Animals were infected subcutaneously with P. aeruginosa strain 6077 at the indicated dose. For organ burden experiments, acute pneumonia was induced in mice followed by harvesting of lungs, spleens, and kidneys 24 hours post-infection for determination of CFU.
Cam-003 and WapR-004 efficacy was next evaluated in a P. aeruginosa corneal infection model which emphasizes the pathogens ability to attach and colonize damaged tissue. […] FIG. 8 (H): The activity of anti-Psl and anti-PcrV monoclonal antibodies V2L2 was tested in a P. aeruginosa mouse ocular keratitis model. C3H/HeN mice were injected intraperitoneally (IP) with PBS or a control IgG1 antibody (R347) at 45 mg/kg or WapR-004 (α-Psl) at 5 mg/kg or V2L2 (α-PcrV) at 5 mg/kg, 16 hours prior to infection with 6077 (O11-cytotoxic−1×10^6 CFU) Immediately before infection, mice were anesthetized followed by initiation of three 1 mm scratches on the cornea and superficial stroma of one eye of each mouse using a 27-gauge needle under a dissection microscope, followed by topical application of P. aeruginosa 6077 strain in a 5 μl inoculum. Eyes were photographed at 48 hours post infection followed by corneal grading by visualization of eyes under a dissection microscope. Grading of corneal infection was performed as previously described by Preston et al. (Preston, M J., 1995, Infect. Immun. 63:3497). Briefly, infected eyes were graded 48 h after infection with strain 6077 by an investigator who was unaware of the animal treatments. The following grading scheme was used: grade 0, eye macroscopically identical to an uninfected eye; grade 1, faint opacity partially covering the pupil; grade 2, dense opacity covering the pupil; grade 3, dense opacity covering the entire pupil; grade 4, perforation of the cornea (shrinkage of the eyeball).

[3] = test system: P. aeruginosa 6077 (O11, cytotoxic); assay: Acute pneumonia model in mice, strain 6077; format: in vivo, Pseudomonas aeruginosa; settings: WapR-004 5 and 1 mg/kg; 6077 (O11) 8×10^5 or 6×10^5 CFU; FIG. 6E-F
Description: as §2

P. aeruginosa 6294 (O6) = assay: Acute pneumonia model in mice, strain 6294; format: in vivo, Pseudomonas aeruginosa; settings: for Overall Impression, lung histology: BALB/c mice
Description: as §2

[4] = test system: P. aeruginosa PAO1.lux attachment to A549 cells; assay: Cell attachment assay, PAO1.lux on A549 cells; format: cell-based, Pseudomonas aeruginosa; settings: MOI 10, FIG. 4
Description: Anti-Psl antibodies were added to a confluent monolayer of A549 cells (an adenocarcinoma human alveolar basal epithelial cell line) grown in opaque 96-well plates (Nunc Nunclon Delta). Log-phase luminescent P. aeruginosa PAO1 strain (PAO1.lux) was added at an MOI of 10. After incubation of PAO1.lux with A549 cells at 37° C. for 1 hour, the A549 cells were washed, followed by addition of LB+0.5% glucose. Bacteria were quantified following a brief incubation at 37° C. as performed in the OPK assay described in Example 2. Measurements from wells without A549 cells were used to correct for non-specific binding.

[5] = test system: P. aeruginosa serogroup 05 strain (PAO1.lux); assay: Opsonophagocytic killing (OPK) assay with luminescent PAO1.lux, HL-60 cells and baby rabbit serum; format: cell-based, Pseudomonas aeruginosa; settings: FIG. 2A
Description: as §1

[6] = test system: P. aeruginosa 6206 (O11-ExoU+); assay: Acute pneumonia model in mice, strain 6206; format: in vivo, Pseudomonas aeruginosa
Description: as §2

[7] = test system: P. aeruginosa 6077 (exoU+); assay: Rabbit red blood cell lysis inhibition assay with strain 6077; format: cell-based, Pseudomonas aeruginosa; settings: strain 6077; FIG. 12D-E
Description: Percent inhibition of cytotoxicity analysis was analysed for the parental V2L2 mAb, mAb166 (positive control) and R347 (negative control), where the antibodies were administered to cultured broncho-epithelial cell line A549 combined with log-phase P. aeruginosa strain 6077 (exoU+) at a MOI of approximately 10. A549 lysis was assayed by measuring released lactate dehydrogenase (LDH) activity and lysis in the presence of mAbs was compared to wells without mAb to determine percent inhibition. The V2L2 mAb, mAb166 (positive control) and R347 (negative control) were evaluated for their ability to prevent lysis of RBCs, where the antibodies were mixed with log-phase P. aeruginosa 6077 (exoU^+) and washed rabbit red blood cells (RBCs) and incubated for 2 hours at 37°. Intact RBCs were pelleted and the extent of lysis determined by measuring the OD405 of the cell-free supernatant. Lysis in the presence of anti-PcrV mAbs was compared to wells without mAb to determine percent inhibition.

rPcrV protein = assay: Binding kinetics on Bio-Rad ProteOn XPR36; design: species or system Pseudomonas aeruginosa; settings: antibody captured, rPcrV injected; FIG. 12G-H
Description: Binding kinetics of V2L2-GL and V2L2-MD were measured using a Bio-Rad ProteOn™ XPR36 instrument. Antibodies were captured on a GLC bisensor chip using anti-human IgG reagents. rPcrV protein was injected at multiple concentrations and the dissociation phase followed for 600 seconds. Data was captured and analyzed using ProteOn Manager software. […] The clone V2L2-MD had increased Kd by 2-3 folds over V2L2-GL.

[8] = 1.33×10^7 CFU 6294, 0.2 mg/kg (combination 0.1 mg/kg ea), Table 6A
[9] = 1.7×10^7 CFU 6294, 0.2 mg/kg (combination 0.1 mg/kg ea), Table 6B
[10] = 5.25×10^5 cfu 6206, single antibody: R347 2.1 mg/kg, V2L2 0.1 mg/kg, WapR-004 0.5 mg/kg, Table 5
[11] = 9.25×10^5 CFU 6206, 0.2 mg/kg (combination 0.1 mg/kg ea), Table 7

B1: WapR-004: anti-Psl human IgG1 monoclonal antibody; VH SEQ ID NO: 11, VL SEQ ID NO: 12 (antibody, V domains shown)
VH: EVQLLESGPGLVKPSETLSLTCNVAGGSISPYYWTWIRQPPGKGLELIGYIHSSGYTDYNPSLKSRVTISGDTSKKQFSLHVSSVTAADTAVYFCARGDWDLLHALDIWGQGTLVTVSS
VL: EIVLTQSPSSLSTSVGDRVTITCRASQSIRSHLNWYQQKPGKAPKLLIYGASNLQSGVPSRFSGSGSGTDFTLTISSLQPEDFATYYCQQSYSFPLTFGGGTKLEIK
modifications: WapR-004 VH; WapR-004 & WarR-004RAD VL
For B1, the “OPK activity against strain 9882-80 (O11)” value [1] was “extends to strain 9882-80 (O11)”, the “bacterial counts in total eye homogenates compared to negative control” value [2] was “reduced bacterial counts in total eye homogenates” and the “corneal pathology compared to negative control-treated animals” value [2] was “significantly less pathology”. The survival [3] was “significant concentration-dependent survival”, the “Hemorrhage, extent in words” value (P. aeruginosa 6294 (O6); [8]) was “Extensive” and the “Inflammatory Infiltrate” value (P. aeruginosa 6294 (O6); [8]) was “PMN 3+”. The “Involved Lung Surface Area” value (P. aeruginosa 6294 (O6); [8]) was 57%, the Bacteria (P. aeruginosa 6294 (O6); [9]) was “Neg-2+” and the “Inflammatory Infiltrate” value (P. aeruginosa 6294 (O6); [9]) was “PMN 2+”. For the same molecule, the “Involved Lung Surface Area” value (P. aeruginosa 6294 (O6); 1.7×10^7 CFU 6294, 0.2 mg/kg, Table 6B) was 40%, the “organ burden after induction of acute pneumonia” value (P. aeruginosa 6294 (O6); 6294 (~1×10^7 CFU), 15, 5, 1 mg/kg, FIG. 7E) was “reduced organ burden” and the “Overall Impression, lung histology” value (P. aeruginosa 6294 (O6); [8]) was “Broncho interstitial pneumonia”. The “Overall Impression, lung histology” value (P. aeruginosa 6294 (O6); [9]) was “Broncho interstitial pneumonia”, the “reduction of P. aeruginosa cell attachment to A549 cells compared to the negative control (up to)” value [4] was ~80% and the “OPK activity, in words” value [5] was “superior OPK activity”. The “organ burden / tissue clearance (lung, spleen, kidney CFU)” value ([6]; 5.25×10^5 cfu 6206, V2L2 0.1 mg/kg, W4-RAD 0.5 mg/kg, combination, 24 h post infection, FIG. 15) was “effective in lowering organ burden”, the “Inflammatory Infiltrate” value [6, 10] was “PMN 2-3+” and the “Involved Lung Surface Area” value [6, 10] was 50%. The “Overall Impression, lung histology” value [6, 10] was “Broncho interstitial pneumonia”, the Bacteria [6, 11] was “Neg-1+” and the “Inflammatory Infiltrate” value [6, 11] was “PMN 1-2+”. For the same molecule, the “Involved Lung Surface Area” value [6, 11] was 36%, the “organ burden after induction of acute pneumonia” value ([6]; 6206 (~1×10^6 CFU), 15, 5, 1 mg/kg, FIG. 7F) was “reduced organ burden” and the “Overall Impression, lung histology” value ([6]; BALB/c mice, 9.25×10^5 CFU 6206, 0.2 mg/kg (combination 0.1 mg/kg ea), Table 7) was “Broncho interstitial pneumonia”.

B2: V2L2-MD: optimized V2L2-GL mAb; germlined lead optimized anti-PcrV antibody used in Bs4-GLO (antibody, V domains shown)
VH: EMQLLESGGGLVQPGGSLRLSCAASGFTFSSYAMNWVRQAPGEGLEWVSAITISGITAYYTDSVKGRFTISRDNSKNTLYLQMNSLRAGDTAVYYCAKEEFLPGTHYYYGMDVWGQGTTVTVSS
VL: AIQMTQSPSSLSASVGDRVTITCRASQGIRNDLGWYQQKPGKAPKLVIYSASTLQSGVPSRFSGSGSGTDFTLSISSLQPDDFATYYCLQDYNYPWTFGQGTKVEIK
modifications: V2L2-MD VH; V2L2-MD and V2L2-GL VL
In the case of B2, the “prevention of RBC lysis” value [7] is reported as “demonstrated prevention of RBC lysis” and the “Kd increased over V2L2-GL” value (rPcrV protein) is reported as 2-3 folds.
